Consider nine molecules from US20220119490A1 (Genentech, published 2022).

B5: PVR (receptor, human, UniProt P15151 21-343, looked up)
soluble query ectodomain: WPPPGTGDVVVQAPTQVPGFLGDSVTLPCYLQVPNMEVTHVSQLTWARHGESGSMAVFHQTQGPSYSESKRLEFVAARLGAELRNASLRMFGLRVEDEGNYTCLFVTFPQGSRSVDIWLRVLAKPQNTAEVQKVQLTGEPVPMARCVSTGGRPPAQITWHSDLGGMPNTSQVPGFLSGTVTVTSLWILVPSSQVDGKNVTCKVEHESFEKPQLLTVNLTVYYPPEVSISGYDNNWYLGQNEATLTCDARSNPEPTGYNWSTTMGPLPPFAVAQGAQLLIRPVDKPINTTLICNVTNALGARQAELTVQVKEGPPSEHSGISRN
modifications: biotinylated
notes: extracellular domain; also called poliovirus receptor; monomeric or tetrameric PVR ectodomain

Experiment [1] has as its target T1, LILRB1 expressed on cells (human, UniProt Q8NHL6 24-650).
T1 construct: whole, on cells; C-terminally tagged in the co-IP; also called LILRB1-FLAG
Nature of the experiment: cell surface interaction assay: ECD tetramer on transfected cells (FIG. 5N).

A further experiment deals with T2, PTPRS expressed on cells (human, UniProt Q13332 30-1948).
T2 construct: whole, on cells; also called receptor-type tyrosine-protein phosphatase S
Description: cell surface interaction assay: streptavidin-tetramerized biotinylated ECD on transfected cells, immunofluorescence.

The target in a further experiment is T3, PTPRD expressed on cells (human, UniProt P23468 21-1912).
T3 construct: whole, on cells; also called receptor-type tyrosine-protein phosphatase delta
Described as above.

The next experiment addresses T4, UNC5A (human, UniProt Q6ZN44).
T4 construct: expressed on cells; also called UNC5A expressed on cells
T4 sequence (cell-surface-expressed binding partner, looked up): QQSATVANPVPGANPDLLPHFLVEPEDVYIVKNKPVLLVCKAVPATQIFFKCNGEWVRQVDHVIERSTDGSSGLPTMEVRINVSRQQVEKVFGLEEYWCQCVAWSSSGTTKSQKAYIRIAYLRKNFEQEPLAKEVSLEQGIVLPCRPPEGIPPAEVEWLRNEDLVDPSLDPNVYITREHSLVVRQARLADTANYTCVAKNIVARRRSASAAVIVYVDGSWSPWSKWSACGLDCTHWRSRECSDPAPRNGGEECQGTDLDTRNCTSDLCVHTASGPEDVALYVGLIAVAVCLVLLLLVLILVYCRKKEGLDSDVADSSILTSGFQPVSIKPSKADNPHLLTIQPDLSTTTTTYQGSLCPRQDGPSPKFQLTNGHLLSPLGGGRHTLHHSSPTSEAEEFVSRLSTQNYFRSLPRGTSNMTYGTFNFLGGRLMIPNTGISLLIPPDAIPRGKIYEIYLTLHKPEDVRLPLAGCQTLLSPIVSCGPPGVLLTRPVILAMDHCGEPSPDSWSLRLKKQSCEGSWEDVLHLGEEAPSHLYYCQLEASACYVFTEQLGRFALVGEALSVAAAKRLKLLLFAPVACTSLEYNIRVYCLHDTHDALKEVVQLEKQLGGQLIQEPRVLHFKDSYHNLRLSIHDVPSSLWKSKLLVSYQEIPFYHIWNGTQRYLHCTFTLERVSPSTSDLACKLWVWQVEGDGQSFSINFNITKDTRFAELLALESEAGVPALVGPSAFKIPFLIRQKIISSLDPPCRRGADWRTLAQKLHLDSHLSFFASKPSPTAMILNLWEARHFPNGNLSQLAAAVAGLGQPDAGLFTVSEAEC
Description: cell surface interaction assay: query ECD tetramerised with fluorescent streptavidin on transfected cells, immunofluorescence.

A further experiment concerns the target T5, CD96 (human, UniProt P40200).
T5 construct: expressed on cells; also called CD96 expressed on cells
T5 sequence (cell-surface-expressed binding partner, looked up): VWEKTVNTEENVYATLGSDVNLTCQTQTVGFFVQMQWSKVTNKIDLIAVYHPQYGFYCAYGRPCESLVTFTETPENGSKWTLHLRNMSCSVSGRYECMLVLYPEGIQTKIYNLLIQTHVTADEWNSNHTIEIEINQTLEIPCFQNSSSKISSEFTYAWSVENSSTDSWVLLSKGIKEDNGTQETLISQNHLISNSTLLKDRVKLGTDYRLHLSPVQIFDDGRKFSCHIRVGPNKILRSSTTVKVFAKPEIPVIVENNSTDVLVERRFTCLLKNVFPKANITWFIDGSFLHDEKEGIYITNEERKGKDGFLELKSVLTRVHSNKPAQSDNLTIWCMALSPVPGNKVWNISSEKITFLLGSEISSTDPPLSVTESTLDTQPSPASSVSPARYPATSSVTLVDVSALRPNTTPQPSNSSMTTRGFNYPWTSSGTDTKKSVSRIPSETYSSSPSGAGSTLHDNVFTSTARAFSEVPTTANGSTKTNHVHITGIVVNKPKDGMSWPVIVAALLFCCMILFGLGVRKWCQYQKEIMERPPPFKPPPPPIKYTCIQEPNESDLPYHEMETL
Description: cell surface binding of monomeric or streptavidin-tetramerised PVR ectodomain to CD96-expressing cells, normalized fluorescence intensity.

The target of experiment [2] is T6, LRRC4B expressed on cells (human, UniProt Q9NT99 36-713).
T6 construct: whole, on cells; C-terminally tagged in the co-IP; also called NGL-3; LRRC4B-FLAG
T6 sequence (looked up): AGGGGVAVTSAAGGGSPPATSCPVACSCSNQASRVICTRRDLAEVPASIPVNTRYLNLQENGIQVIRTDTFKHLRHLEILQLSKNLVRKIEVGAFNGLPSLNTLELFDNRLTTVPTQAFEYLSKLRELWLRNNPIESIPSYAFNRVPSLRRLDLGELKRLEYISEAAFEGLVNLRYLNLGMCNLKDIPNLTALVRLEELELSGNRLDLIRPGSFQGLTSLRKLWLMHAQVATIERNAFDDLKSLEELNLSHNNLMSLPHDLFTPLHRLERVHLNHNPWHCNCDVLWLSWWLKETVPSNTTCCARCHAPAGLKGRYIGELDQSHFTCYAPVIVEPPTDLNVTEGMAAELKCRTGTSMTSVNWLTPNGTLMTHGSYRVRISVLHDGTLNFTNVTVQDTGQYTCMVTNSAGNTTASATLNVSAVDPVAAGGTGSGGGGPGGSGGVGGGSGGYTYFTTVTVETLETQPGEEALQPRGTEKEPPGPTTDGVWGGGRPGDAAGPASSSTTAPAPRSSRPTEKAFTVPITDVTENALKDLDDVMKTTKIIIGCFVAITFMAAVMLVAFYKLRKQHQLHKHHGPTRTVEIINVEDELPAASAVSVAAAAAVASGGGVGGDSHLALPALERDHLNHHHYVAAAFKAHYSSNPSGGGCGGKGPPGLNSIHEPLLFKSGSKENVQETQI
Description: cell surface interaction assay: streptavidin-tetramerized biotinylated ECD on transfected cells, immunofluorescence.

Experiment [3] addresses B5. Nature of the experiment: cell surface binding of monomeric or streptavidin-tetramerised PVR ectodomain to TIGIT-expressing cells, normalized fluorescence intensity.
Experiment [4] addresses B5. Description: cell surface binding of monomeric or streptavidin-tetramerised PVR ectodomain to CD226-expressing cells, normalized fluorescence intensity.

T1 sequence (Q8NHL6 24-650): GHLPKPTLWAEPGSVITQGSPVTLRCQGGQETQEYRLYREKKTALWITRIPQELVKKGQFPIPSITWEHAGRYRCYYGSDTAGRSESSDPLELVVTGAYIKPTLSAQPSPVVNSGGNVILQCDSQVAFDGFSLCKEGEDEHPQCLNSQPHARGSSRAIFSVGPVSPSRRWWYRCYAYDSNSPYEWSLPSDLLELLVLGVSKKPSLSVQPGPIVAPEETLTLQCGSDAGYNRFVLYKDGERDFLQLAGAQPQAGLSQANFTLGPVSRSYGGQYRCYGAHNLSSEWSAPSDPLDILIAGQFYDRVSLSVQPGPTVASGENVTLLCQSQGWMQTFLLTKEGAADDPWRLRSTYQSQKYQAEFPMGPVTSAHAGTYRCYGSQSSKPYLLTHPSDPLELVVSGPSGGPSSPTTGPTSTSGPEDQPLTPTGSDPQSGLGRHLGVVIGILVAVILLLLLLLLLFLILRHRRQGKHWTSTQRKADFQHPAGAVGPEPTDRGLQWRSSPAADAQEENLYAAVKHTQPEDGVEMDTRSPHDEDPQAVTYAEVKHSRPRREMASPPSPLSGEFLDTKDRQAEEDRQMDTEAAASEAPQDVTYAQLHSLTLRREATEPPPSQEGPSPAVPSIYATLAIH
T2 sequence (Q13332 30-1948): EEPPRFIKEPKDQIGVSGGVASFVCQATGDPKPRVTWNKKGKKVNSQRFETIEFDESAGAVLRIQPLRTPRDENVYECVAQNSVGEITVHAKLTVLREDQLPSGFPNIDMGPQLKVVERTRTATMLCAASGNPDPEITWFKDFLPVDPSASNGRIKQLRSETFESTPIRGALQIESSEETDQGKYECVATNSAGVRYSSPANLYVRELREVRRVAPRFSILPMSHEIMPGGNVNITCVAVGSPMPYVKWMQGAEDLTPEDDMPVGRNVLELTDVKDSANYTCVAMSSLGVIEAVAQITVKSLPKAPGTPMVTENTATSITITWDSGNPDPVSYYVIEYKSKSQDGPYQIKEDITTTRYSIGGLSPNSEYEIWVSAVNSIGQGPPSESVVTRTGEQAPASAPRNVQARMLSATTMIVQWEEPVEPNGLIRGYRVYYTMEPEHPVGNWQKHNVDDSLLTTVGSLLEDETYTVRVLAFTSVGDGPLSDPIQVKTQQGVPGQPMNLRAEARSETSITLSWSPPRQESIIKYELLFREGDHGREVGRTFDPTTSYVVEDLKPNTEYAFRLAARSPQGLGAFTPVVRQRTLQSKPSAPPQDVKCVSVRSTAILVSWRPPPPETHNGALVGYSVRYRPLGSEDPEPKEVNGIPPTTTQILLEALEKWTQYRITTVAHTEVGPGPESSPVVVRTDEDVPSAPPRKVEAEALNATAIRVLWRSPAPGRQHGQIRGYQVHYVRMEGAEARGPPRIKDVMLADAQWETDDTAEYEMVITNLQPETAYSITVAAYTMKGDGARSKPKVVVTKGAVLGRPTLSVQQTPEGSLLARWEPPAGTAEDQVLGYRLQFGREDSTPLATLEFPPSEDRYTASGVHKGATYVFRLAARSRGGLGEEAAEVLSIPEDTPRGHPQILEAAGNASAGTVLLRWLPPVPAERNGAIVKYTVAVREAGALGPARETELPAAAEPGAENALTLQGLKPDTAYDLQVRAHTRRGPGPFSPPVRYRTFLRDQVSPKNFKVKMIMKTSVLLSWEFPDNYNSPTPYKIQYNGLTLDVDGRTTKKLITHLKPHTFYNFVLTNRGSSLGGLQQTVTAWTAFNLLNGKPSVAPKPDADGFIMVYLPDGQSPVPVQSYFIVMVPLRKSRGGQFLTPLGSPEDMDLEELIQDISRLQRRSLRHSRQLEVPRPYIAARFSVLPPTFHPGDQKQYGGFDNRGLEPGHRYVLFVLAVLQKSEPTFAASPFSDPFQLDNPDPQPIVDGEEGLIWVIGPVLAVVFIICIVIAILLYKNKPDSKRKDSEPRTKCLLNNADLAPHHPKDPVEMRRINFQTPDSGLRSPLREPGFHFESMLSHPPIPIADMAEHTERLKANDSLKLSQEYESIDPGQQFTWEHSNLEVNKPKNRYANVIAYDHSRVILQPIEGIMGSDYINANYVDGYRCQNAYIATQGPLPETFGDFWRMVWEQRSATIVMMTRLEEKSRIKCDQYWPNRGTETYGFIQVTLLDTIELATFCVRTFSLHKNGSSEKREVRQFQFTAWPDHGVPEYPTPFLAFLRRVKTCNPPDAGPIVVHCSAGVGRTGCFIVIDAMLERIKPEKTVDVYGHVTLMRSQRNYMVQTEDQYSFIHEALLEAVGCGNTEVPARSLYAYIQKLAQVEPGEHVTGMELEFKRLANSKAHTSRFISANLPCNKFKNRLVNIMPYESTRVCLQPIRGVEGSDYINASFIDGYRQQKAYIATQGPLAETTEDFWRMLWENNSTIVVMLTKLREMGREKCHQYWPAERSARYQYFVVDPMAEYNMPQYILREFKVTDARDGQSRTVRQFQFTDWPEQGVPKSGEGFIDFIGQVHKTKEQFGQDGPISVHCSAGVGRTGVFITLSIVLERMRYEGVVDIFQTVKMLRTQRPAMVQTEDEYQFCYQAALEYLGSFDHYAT
T3 sequence (P23468 21-1912): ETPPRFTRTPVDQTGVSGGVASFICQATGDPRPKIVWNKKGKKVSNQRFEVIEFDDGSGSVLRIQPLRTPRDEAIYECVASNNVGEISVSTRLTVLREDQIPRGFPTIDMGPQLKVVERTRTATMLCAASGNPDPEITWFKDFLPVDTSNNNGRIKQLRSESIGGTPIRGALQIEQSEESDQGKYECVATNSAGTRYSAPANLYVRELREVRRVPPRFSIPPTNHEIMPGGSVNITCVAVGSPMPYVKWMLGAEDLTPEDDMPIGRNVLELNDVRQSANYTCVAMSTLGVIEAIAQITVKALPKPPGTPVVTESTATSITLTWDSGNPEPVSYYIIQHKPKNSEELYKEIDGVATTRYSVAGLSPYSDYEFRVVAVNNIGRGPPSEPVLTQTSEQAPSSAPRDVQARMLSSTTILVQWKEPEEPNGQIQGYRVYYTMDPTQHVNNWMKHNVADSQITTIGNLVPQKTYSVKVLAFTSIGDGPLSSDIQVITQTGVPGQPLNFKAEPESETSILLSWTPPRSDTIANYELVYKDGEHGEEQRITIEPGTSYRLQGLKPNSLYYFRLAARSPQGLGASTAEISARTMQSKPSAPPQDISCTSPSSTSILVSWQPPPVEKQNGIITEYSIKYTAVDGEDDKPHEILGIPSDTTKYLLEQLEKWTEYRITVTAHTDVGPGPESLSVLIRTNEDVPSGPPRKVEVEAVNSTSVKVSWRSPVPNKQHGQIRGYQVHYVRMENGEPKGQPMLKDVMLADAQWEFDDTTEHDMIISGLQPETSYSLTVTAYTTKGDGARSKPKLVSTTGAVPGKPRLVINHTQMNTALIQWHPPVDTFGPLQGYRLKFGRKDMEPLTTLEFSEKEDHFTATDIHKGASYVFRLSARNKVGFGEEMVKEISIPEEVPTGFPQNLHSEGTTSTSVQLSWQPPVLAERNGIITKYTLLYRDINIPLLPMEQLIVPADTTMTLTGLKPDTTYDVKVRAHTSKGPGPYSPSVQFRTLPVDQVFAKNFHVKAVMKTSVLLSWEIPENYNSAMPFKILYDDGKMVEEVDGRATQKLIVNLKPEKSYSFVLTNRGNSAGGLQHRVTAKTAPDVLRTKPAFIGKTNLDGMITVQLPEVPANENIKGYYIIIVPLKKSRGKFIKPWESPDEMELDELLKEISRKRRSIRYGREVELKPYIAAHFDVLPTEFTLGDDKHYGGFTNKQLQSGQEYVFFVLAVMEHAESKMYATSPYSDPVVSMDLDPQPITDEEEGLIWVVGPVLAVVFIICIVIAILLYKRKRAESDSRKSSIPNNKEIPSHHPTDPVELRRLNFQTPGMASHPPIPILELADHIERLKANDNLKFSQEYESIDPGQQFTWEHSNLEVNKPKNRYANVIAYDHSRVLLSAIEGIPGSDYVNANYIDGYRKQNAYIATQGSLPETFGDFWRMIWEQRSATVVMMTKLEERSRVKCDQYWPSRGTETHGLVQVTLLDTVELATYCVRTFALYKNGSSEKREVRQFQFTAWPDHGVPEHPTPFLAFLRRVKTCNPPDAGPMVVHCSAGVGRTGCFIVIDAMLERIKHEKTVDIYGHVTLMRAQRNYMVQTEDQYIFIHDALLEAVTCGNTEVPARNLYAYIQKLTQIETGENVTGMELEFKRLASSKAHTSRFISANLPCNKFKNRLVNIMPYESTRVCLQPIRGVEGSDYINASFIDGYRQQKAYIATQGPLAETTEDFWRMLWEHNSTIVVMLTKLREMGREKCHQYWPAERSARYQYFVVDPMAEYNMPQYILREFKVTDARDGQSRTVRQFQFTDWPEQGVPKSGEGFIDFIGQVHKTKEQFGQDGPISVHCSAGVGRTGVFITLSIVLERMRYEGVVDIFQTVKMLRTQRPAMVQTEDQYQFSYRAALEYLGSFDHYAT

B1: LILRA5 extracellular domain (receptor)
chain: not shown
notes: extracellular domain; Soluble query, streptavidin tetramer
Regarding B1, in experiment [1], the binding result is “binds”.

B2: SLITRK3 extracellular domain (receptor, human, UniProt O94933 29-654, looked up)
chain: TPIPLIEDSEEIDEPCFDPCYCEVKESLFHIHCDSKGFTNISQITEFWSRPFKLYLQRNSMRKLYTNSFLHLNNAVSINLGNNALQDIQTGAFNGLKILKRLYLHENKLDVFRNDTFLGLESLEYLQADYNVIKRIESGAFRNLSKLRVLILNDNLIPMLPTNLFKAVSLTHLDLRGNRLKVLFYRGMLDHIGRSLMELQLEENPWNCTCEIVQLKSWLERIPYTALVGDITCETPFHFHGKDLREIRKTELCPLLSDSEVEASLGIPHSSSSKENAWPTKPSSMLSSVHFTASSVEYKSSNKQPKPTKQPRTPRPPSTSQALYPGPNQPPIAPYQTRPPIPIICPTGCTCNLHINDLGLTVNCKERGFNNISELLPRPLNAKKLYLSSNLIQKIYRSDFWNFSSLDLLHLGNNRISYVQDGAFINLPNLKSLFLNGNDIEKLTPGMFRGLQSLHYLYFEFNVIREIQPAAFSLMPNLKLLFLNNNLLRTLPTDAFAGTSLARLNLRKNYFLYLPVAGVLEHLNAIVQIDLNENPWDCTCDLVPFKQWIETISSVSVVGDVLCRSPENLTHRDVRTIELEVLCPEMLHVAPAGESPAQPGDSHLIGAPTSASPYEFSPPGGPVPLS
notes: extracellular domain; Streptavidin tetramer in cell assay; ECD-Fc prey in the variant screen
With B2, the binding result with PTPRS expressed on cells and in the experiment with PTPRD expressed on cells was “binds” each time.

B3: FLRT2 (receptor, human, UniProt O43155 36-541, looked up)
soluble query ectodomain: CPSVCRCDRNFVYCNERSLTSVPLGIPEGVTVLYLHNNQINNAGFPAELHNVQSVHTVYLYGNQLDEFPMNLPKNVRVLHLQENNIQTISRAALAQLLKLEELHLDDNSISTVGVEDGAFREAISLKLLFLSKNHLSSVPVGLPVDLQELRVDENRIAVISDMAFQNLTSLERLIVDGNLLTNKGIAEGTFSHLTKLKEFSIVRNSLSHPPPDLPGTHLIRLYLQDNQINHIPLTAFSNLRKLERLDISNNQLRMLTQGVFDNLSNLKQLTARNNPWFCDCSIKWVTEWLKYIPSSLNVRGFMCQGPEQVRGMAVRELNMNLLSCPTTTPGLPLFTPAPSTASPTTQPPTLSIPNPSRSYTPPTPTTSKLPTIPDWDGRERVTPPISERIQLSIHFVNDTSIQVSWLSLFTVMAYKLTWVKMGHSLVGGIVQERIVSGEKQHLSLVNLEPRSTYRICLVPLDAFNYRAVEDTICSEATTHASYLNNGSNTASSHEQTTSHSMGSPF
modifications: biotinylated
notes: extracellular domain; also called soluble query
For B3, the binding result with UNC5A is on record as “binds”.

B4: EDAR extracellular domain (receptor, human, UniProt Q9UNE0 27-187, looked up)
chain: EYSNCGENEYYNQTTGLCQECPPCGPGEEPYLSCGYGTKDEDYGCVPCPAEKFSKGGYQICRRHKDCEGFFRATVLTPGDMENDAECGPCLPGYYMLENRPRNIYGMVCYSCLLAPPNTKECVGATSGASANFPGTSGSSTLSPFQHAHKELSGQGHLATA
notes: as for B1
As for B4, the binding result in experiment [1] is “binds”.

Turning to B5, the binding result with CD96 is recorded as “binds”.

B6: BTN3A3 extracellular domain (receptor)
chain: not shown
notes: as for B1
As to B6, in experiment [2], the binding result is recorded as “binds”.

B7: TIGIT (receptor, human, UniProt Q495A1 22-244, looked up)
cell-surface-expressed binding partner: MMTGTIETTGNISAEKGGSIILQCHLSSTTAQVTQVNWEQQDQLLAICNADLGWHISPSFKDRVAPGPGLGLTLQSLTVNDTGEYFCIYHTYPDGTYTGRIFLEVLESSVAEHGARFQIPLLGAMAATLVVICTAVIVVVALTRKKKALRIHSVEGDLRRKSAGQEEWSPSAPSPPGSCVQAEAAPAGLCGEQRGEDCAELHDYFNVLSYRSLGNCSFFTETG
notes: expressed on cells; also called TIGIT expressed on cells
For the molecule B7, the binding result with PVR [3] is “binds”.

B8: BTN3A1 extracellular domain (receptor)
chain: not shown
notes: as for B1
For the molecule B8, the binding result in experiment [2] is listed as “binds”.

B9: CD226 (receptor, human, UniProt Q15762 19-336, looked up)
cell-surface-expressed binding partner: EEVLWHTSVPFAENMSLECVYPSMGILTQVEWFKIGTQQDSIAIFSPTHGMVIRKPYAERVYFLNSTMASNNMTLFFRNASEDDVGYYSCSLYTYPQGTWQKVIQVVQSDSFEAAVPSNSHIVSEPGKNVTLTCQPQMTWPVQAVRWEKIQPRQIDLLTYCNLVHGRNFTSKFPRQIVSNCSHGRWSVIVIPDVTVSDSGLYRCYLQASAGENETFVMRLTVAEGKTDNQYTLFVAGGTVLLLLFVISITTIIVIFLNRRRRRERRDLFTESWDTQKAPNNYRSPISTSQPTNQSMDDTREDIYVNYPTFSRRPKTRV
notes: expressed on cells; also called CD226 expressed on cells
Take B9: the binding result with PVR [4] is recorded as “binds”.
